Data reported in patent US20230122364A1.

Biological target: prefusion conformation-stabilized SARS-CoV-2 spike ectodomain (S2Pecto) protein (SARS-CoV-2) (UniProt P0DTC2)
Test: ELISA on coated S2Pecto

Substance: rCR3022 (recombinant form of the cross-reactive SARS-CoV SRBD mAb CR3022) (antibody)
- EC50: 0.0102 µg/mL
